Read-outs that look alike come from different tables or passages of the source.
Tests used:
[1] = target: T1, SARS-CoV-2 prototype (PT) spike receptor binding domain (RBD) (SARS-CoV-2, UniProt P0DTC2 319-541); assay: SPR
[2] = target: T1, SARS-CoV-2 prototype (PT) spike …; assay: SPR; remark: listed apart in the source

B1: raccoon dog ACE2 (rdACE2), peptidase domain (PD), wild type (receptor)
chain: QSTEDLVNTFLEKFNYEAEELSYQSSLASWNYNTNITDENLQKMNNAGAKWSAFYEEQSKLAKTYPLEEIQDSTVKRQLRALQHSGSSVLSADKNQRLNTILNSMSTIYSTGKACNPSNPQECLLLEPGLDDIMENSKDYNERLWAWEGWRSEVGKQLRPLYEEYVALKNEMARANNYEDYGDYWRGDYEEEWENGYNYSRNQLIDDVEHTFTQIMPLYQHLHAYVRTKLMDTYPSYISPTGCLPAHLLGDMWGRFWTNLYPLTVPFGQKPNIDVTNAMVNQSWDARKIFKEAEKFFVSVGLPNMTQGFWENSMLTEPSDSWKVVCHPTAWDLGRGDFRIKMCTKVTMDDFLTAHHEMGHIQYDMAYAAQPFLLRNGANEGFHEAVGEIMSLSAATPNHLKNIGLLPPSFFEDSETEINFLLKQALTIVGTLPFTYMLEKWRWMVFKGEIPKDQWMKTWWEMKRNIVGVVEPVPHDETYCDPASLFHVANDYSFIRYYTRTIYQFQFQEALCQIAKHEGPLHKCDISNSSEAGQKLLEMLKLGKSKPWTYALEIVVGAKNMDVRPLLNYFEPLFTWLKEQNRNSFVGWNTDWSPYADQS
Kd [1]: 87.4 nM | Kd [2]: 70.7 nM

From publication PMC11620640 (2024)
